In paper PMC5507356, “Characterization of the molecular chaperone ClpB from the pathogenic spirochaete Leptospira interrogans” (PLoS ONE, 2017):

Biological target: the molecule itself
Assay: AUC; sedimentation velocity, 1.2 mg/ml ClpBLi with 2 mM ATPγS, 20°C, 50 mM Tris-HCl pH 7.5, 200 mM KCl, 20 mM MgCl2, 1 mM EDTA, 2 mM β-mercaptoethanol, 5% glycerol

B1: ClpB from Leptospira interrogans (ClpBLi), recombinant (natural protein)
chain: not shown
notes: Chaperone protein ClpB, Leptospira interrogans; intact protein runs at ~100 kDa; Monomer without nucleotide, hexamer with ATPγS; source: E. coli BL21(DE3), purified (Co-NTA IMAC, Superdex 200 gel filtration); not shown: His6, N-terminal, cleaved
B1 was tested, and the “stoichiometry N” value was 6.
